Measured values as given in US8343490B2, “Monoclonal antibody SC104 and derivative thereof specifically binding to a sialyltetraosyl carbohydrate as a potential anti-tumor therapeutic agent” (Cephalon Australia Pty Ltd, priority 2004, dated 2013).
“And” between values parts separate entries of the source, which are not always exact repeats. Identical values can stand only once.

Experiments:
[1] = tested on: normal colonic extranuclear membranes; assay: ELISA on extranuclear membranes of normal colon; type: binding; settings: one line per patient (1-7)
Protocol: • Tumour and normal membrane extract binding. Extranuclear extractions of colorectal and normal colonic membranes were produced and binding of SC104 was assayed by ELISA. Results

[2] = tested on: frozen tumour tissue sections; assay: Immunohistochemistry staining of frozen tumour tissue sections; type: binding, Human
Protocol: • Immunohistochemistry staining of normal and tumour tissues. Human tissues were obtained from an Inveresk approved supplier. Each tissue used was snap frozen in liquid nitrogen and stored at approximately −70° C. (±10° C.). Cryostat sections were cut and placed onto super frost plus slides. All tissue samples were treated with an antigen marker appropriate for each tissue in order to confirm the preservation of antigens in that tissue. The markers used were keratin for epithelial bearing tissues, CD45 for all lymphoid tissues, and desmin for all cardiac and skeletal muscle. Each tissue was examined from three unrelated donors. The method of staining employed was an indirect, 2 or 3-stage method, using secondary and tertiary antibodies together with an avidin-biotin-peroxidase complex. Endogenous peroxidase activity was blocked using hydrogen peroxide. Endogenous biotin was blocked by treating all tissue sections with a sequence of avidin-biotin. When a tertiary antibody was used, all tissue sections were treated with normal swine serum, which inhibits the binding of tertiary antibodies to the tissues. Validation of the immunohistochemical staining method was determined by staining on positive control tissues, the absence on negative controls and the effect of fixation on staining of control tissues. SC104 was tested against 6 donors of colon tumour and one of heart at concentrations of […]. Tissues were fixed in either acetone or neutral buffered formalin. Two samples of colon tumour stained well enough for use as a positive control and there was no staining in heart. […] The lowest concentration of SC104 giving the maximum staining intensity was 1 μg/ml and this concentration was used for subsequent work. Results

[3] = tested on: normal colon; assay: Immunohistochemistry of normal colon (screening); type: binding; set-up: key: −: negative; +: minimal; 2+: strong; 3+: very strong
[4] = tested on: range of tumour cell lines; assay: Binding to tumour cell lines by ELISA; settings: SC104 1 μg/ml; FIG. 2a
Protocol: C170, Colo205, MKN45, R1D9, and 791T cells (10^5) were resuspended in 50 μl of SC104 mab (0-20 μg/ml) and incubated on ice for 20 min. After washing the samples 3 times in RPMI/10% FCS cells were incubated with FITC labelled rabbit anti-mouse (1/50: Dako Ltd, Bucks, UK) antibody and incubated on ice for 30 minutes prior to analysis on a FACScan (Becton Dickinson, Sunnyvale, Calif.). Results are expressed as mean linear fluorescence (MLF). • Binding to tumour cells by ELISA. 96-well tissue culture plates were coated with cells at a cell density of 5×10^5 cells/ml (100 μl/well) in 10% foetal bovine serum in RPMI 1640. The plates were incubated overnight at 37° C., 5% CO2, 95% air. The cells were then washed twice in phosphate buffered saline (pH7.3, PBS) prior to being fixed with 0.5% glutaraldehyde in PBS (10 min, 25° C., 100 μl/well). Remaining non-specific binding sites were blocked by incubation for 1 hr with 1% bovine serum albumin (fraction V from Sigma Chemicals Ltd.) in PBS. The cells were washed three times with a washing solution consisting of 0.05% Tween 20 in phosphate buffered saline. Cells were incubated with SC104 (1 μg/ml) for 1 hr at room temperature and then bound antibody detected with goat anti-mouse horse radish peroxidase and ABTS. Results are expressed as absorbance at 405 nm. Results

[5] = biological target: T1, CEA (Homo sapiens, UniProt P06731); assay: ELISA on purified CEA; type: binding; settings: FIG. 4
T1 construct: from tissue
T1 sequence (P06731 35-676): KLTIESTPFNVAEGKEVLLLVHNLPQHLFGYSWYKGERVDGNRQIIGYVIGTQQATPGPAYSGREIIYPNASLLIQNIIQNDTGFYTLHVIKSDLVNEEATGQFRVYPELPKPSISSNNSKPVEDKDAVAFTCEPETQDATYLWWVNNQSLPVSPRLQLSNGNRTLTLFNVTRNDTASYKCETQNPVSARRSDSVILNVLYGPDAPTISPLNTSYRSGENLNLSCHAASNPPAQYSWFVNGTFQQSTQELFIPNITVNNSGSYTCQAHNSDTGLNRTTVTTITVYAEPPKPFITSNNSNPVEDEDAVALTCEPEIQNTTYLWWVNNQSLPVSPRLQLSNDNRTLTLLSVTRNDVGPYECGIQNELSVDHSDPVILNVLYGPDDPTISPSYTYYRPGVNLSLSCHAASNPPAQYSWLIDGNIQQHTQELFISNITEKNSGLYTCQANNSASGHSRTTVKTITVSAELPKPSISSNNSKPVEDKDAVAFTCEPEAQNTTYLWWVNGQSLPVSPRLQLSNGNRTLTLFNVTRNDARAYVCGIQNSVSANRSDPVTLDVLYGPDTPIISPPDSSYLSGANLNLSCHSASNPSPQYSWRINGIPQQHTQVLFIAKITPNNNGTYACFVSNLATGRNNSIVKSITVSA
Protocol: • Binding to purified antigen preparations. […] Binding of SC104 mab was assayed by ELISA as described above.

[6] = HPTLC immunostaining of commercially available lipid standards; type: binding; settings: standards of Table 6 (lactosyl ceramide, Gb3, globoside, Forrsman, GM3, AGM1, GM1, GD3, GD1a, GD1b, GT1b)
Description: The SC104 antigen has been compared to a number of commercially available lipid standards. Examples of each standard were spotted onto HPTLC plates and developed in 50:40:10 chloroform:methanol:CaCl2 (0.5% w/v). Plates were also spotted with partially purified SC104 antigen. Migration of each standard was detected by iodine vapour staining and the location of each marked on the plate. Plates were then probed with SC104.

[7] = tested on: C170 cells; assay: FACS antibody saturation on fresh and fixed cells; type: binding
Protocol: FACS on fresh and fixed cells. C170 cells (10^5) either fresh or fixed with 0.5% glutaraldehyde for 1 hr were resuspended in 100 μl of SC104 mab (0-100 μg/ml) and incubated on ice for 1 hr. After washing the samples 3 times in RPMI/10% FCS cells were incubated with FITC labelled rabbit anti-mouse (1/80: Dako Ltd, Bucks, UK) antibody and incubated on ice for 30 minutes prior to analysing by FACS as described above.

B1: SC104: mouse IgG1 monoclonal antibody specific for a sialyltetraosyl carbohydrate, raised by immunisation with colorectal cancer cell lines (antibody, V domains shown)
VH: DVQLQESGPDLVKPSQSLSLTCTVTGYSITSGYSWHWVRQFPGNKMEWMGHIHFSGRPTYNPSLSSRISITRDTSKNQFLLQLKFVTTEDTSTYFCARKGKGSDDGLNYWGQGISVTVSS
VL: ENVLTQSPVIMSASPGEKVTMTCSASSSLSYIHWYQQKSRTSPKLWIYDTSNLASGVPGRFSGSGSGNSYSLTISSMEAEDVATYYCFQGSEYPLTFGGGTKLEMT
What does the source list for B1?
Binding of SC104 mab to extranuclear membranes: Normal colon [1]: 0.217 and 0.042 and 0.066 and 0.035 and 0.139 and 0.001 and 0.068; Immunoreactivity with frozen tissue sections (binding) ([2]; Tumours: Breast): 3/6; Immunoreactivity with frozen tissue sections (binding) ([2]; Tumours: Colon): 8/8; Immunoreactivity with frozen tissue sections (binding) ([2]; Tumours: Endometrial): 2/2; Immunoreactivity with frozen tissue sections (binding) ([2]; Tumours: Lung): 0; Immunoreactivity with frozen tissue sections (binding) ([2]; Tumours: Oesophageal): 4/4; Immunoreactivity with frozen tissue sections (binding) ([2]; Tumours: Ovary): 0; Immunoreactivity with frozen tissue sections (binding) ([2]; Tumours: Parotid): 2/2; Immunoreactivity with frozen tissue sections (binding) ([2]; Tumours: Prostate): 0; Immunoreactivity with frozen tissue sections (binding) ([2]; Tumours: Renal): 0; Immunoreactivity with frozen tissue sections (binding) ([2]; Tumours: Stomach): 4/4; Immunoreactivity with frozen tissue sections (binding) ([2]; Tumours: Testes): 0/1; lowest concentration giving the maximum staining intensity ([2]; colon tumour positive control, neutral buffered formalin): 1 µg/mL; Immunohistochemistry Normal colon [3]: +; binding to range of tumour cell lines by ELISA [4]: predominantly bound to cell lines of the gastrointestinal origin; staining of CEA by ELISA [5]: No significant staining; recognition of lipid standards [6]: none of the standards were recognised by SC104; number of SC104 haptens at the surface of C170 tumour cells [7]: approximately 4×10^5 sites per cell; antigen saturation on fresh and fixed cells ([7]; SC104 0-100 μg/ml, FIG. 22): not saturated even at SC104 concentration of 100 μg/ml
